This note sets out measurements from US20200234789A1, “DESIGNED PROTEINS FOR LIGAND BINDING” (THE REGENTS OF THE UNIVERSITY OF CALIFORNIA, priority 2017, published 2020).

The nature of series [1]: Porphyrin binding to apo-protein, electronic absorption spectra ((CF3)4PZn loading). Here is the method:
(§1) FIGS. 3A-3D. Biophysical characterization of apo- and holo-PS1. FIG. 3A: Electronic absorption and emission spectra of (CF3)4PZn/PS1 holo-protein and (CF3)4PZn in toluene solvent. […] FIG. 3B: Determination of KD by apo-PS1 titration into a buffer solution (100 mM NaCl, 50 mM NaPi, pH 7.5) of (CF3)4PZn with 1% w/v octyl-b-D-glucopyranoside. […] FIG. 3C: Circular dichroism (CD) spectra of apo- and holo-PS1 in 50 mM NaPi, 100 mM NaCl, pH 7.5 as a function of temperature. The transitions appear reversible based on the fact that the spectra are identical after cooling to room temperature. Units are in molar residue ellipticity. […] FIG. 3D: Pump-probe transient absorption spectra of (CF3)4PZn bound in the interior of holo-PS1 at 21° C. and 100° C. […] Inset exemplifies identical transient dynamics (primarily intersystem crossing from S1 to T1) at ΔAbs.=482 nm (scaled). Experimental conditions: solvent=50 mM NaPi, 100 mM NaCl, pH 7.5; excitation wavelength=600±5 nm; magic-angle polarization between pump and probe pulses; pump-probe cross-correlation of ˜250 fs.
FIG. 10. Absorption spectra of (CF3)4PZn/PS1 and (CF3)4PZn/PS2 complexes. […] Experimental conditions: buffer=100 mM NaCl, 50 mM NaPi, pH 7.5.
A 2-fold excess of the cofactor (CF3)4PZn was added from a 4 mM DMSO stock solution to a 50 mM NaPi, 100 mM NaCl, pH 7.5 buffer with apo-protein (Note that final DMSO concentrations were kept <1%.). Buffer solution of apo-PS1 protein was heated for 5 minutes at 50° C., (CF3)4PZn was then added from the DMSO stock solution, the resultant mixture was vortexed for 5 seconds, and placed back in the heat block at 50° C. for 15 minutes, with vortexing every 3 minutes. The protein/cofactor solution was then spun at 14000×g in a Amicon Ultra-0.5 mL centrifuge filter for 10 min, three times, replacing the buffer to 0.5 mL after each 10 min spin. Finally, the protein solution was spun for 4 min at 12000×g in an Amicon ultrafree-MC GV filter (UFC30GV0S). The holo-PS1 sample was then used for spectroscopic experiments immediately afterward, and diluted to an appropriate concentration if necessary. Binding of (CF3)4PFe was carried out in the same fashion, with the exception that the porphyrin was first dissolved in a stock of DMSO/CHCl3.
Electronic absorption spectra were collected using a Shimadzu UV-1700 UV-Vis spectrophotometer or Cary 5000 spectrophotometer. Steady-state emission spectra were obtained on FLS920P spectrophotometer (Edinburgh Instruments Ltd. Livingston, UK) in 1 cm quartz optical cells. The steady-state emission spectra were corrected using the correction factor generated by the manufacturer.

Series [2] in a line: Circular dichroism: temperature and GnHCl induced unfolding. Format: physicochemical. Conditions: at 95° C.; CD at 222 nm; 50 mM NaPi, 100 mM NaCl, pH 7.5. Here is the method:
as §1
FIG. 8. Temperature and GnHCl induced unfolding of apo-PS1. CD spectra at 222 nm of apo-PS1 as a function of temperature and denaturant (Guanidine HCl, GnHCl) concentration in 50 mM NaPi, 100 mM NaCl, pH 7.5 buffer. The midpoint for GnHCl-induced unfolding at 95° C. was approximately 4.5 M. […]
(Circular dichroism is the unequal absorption of left and right circularly polarised light.)

Series [3] is described as follows: Pump-probe transient absorption spectroscopy of bound (CF3)4PZn at 21 and 100° C. As to conditions: non-natural porphyrin (CF3)4PZn. The class given is physicochemical. The method, then:
as §1, with “Experimental conditions: solvent=50 mM NaPi, 100 mM NaCl, pH 7.5; excitation wavelength=600±5 nm; magic-angle polarization between pump and probe pulses; pump-probe cross-correlation of ˜250 fs.” left out
Ultrafast transient absorption spectra were obtained using standard pump-probe methods^9 with a time resolution of approximately 200 fs. Elevated temperature experiments were performed in a custom-made temperature block of anodized aluminum, the temperature of which was controlled by heating rods and monitored by a pair of thermocouples wired to a PID through a solid-state relay. […]

The nature of series [4]: Analytical ultracentrifugation (equilibrium sedimentation), oligomeric state. The class given is physicochemical. As to conditions: analytical ultracentrifugation and gel filtration. The text has this:
FIG. 7A-7B. […] FIG. 7A: Analytical ultracentrifugation. Solutions of apo- and holo-PS1 were centrifuged at speeds ranging from 25,000 r.p.m. to 45,000 r.p.m. and monitored by absorbance at 280 nm. Parameters were globally fit to the data. Single-species fitting agrees well with the data over the entire range and yields the molecular weight of apo-PS1 […] and holo-PS1 12.24±0.91 kD, which agrees well with the 12.86 kD weight of PS1. […] Partial specific volumes were estimated from SEDNTERP^15 for amino acid side chains. FIG. 7B: Analytical gel filtration analysis of apo- and holo-PS1. Detection wavelengths are labeled as the same color as their respective curves. […] The small peak near 1.05 ml elution volume in holo-PS1 is unbound (excess), aggregated porphyrin eluting in the void volume of the superdex 75 5/150 column. Samples were run at concentrations of 100 μM and 37 μM for apo and holo, respectively, in 50 mM NaPi, 150 mM NaCl, pH 7.0 buffer.
The oligomeric state of apo- and holo-PS1 were determined by analytical equilibrium sedimentation performed at 25° C. using a Beckman XL-I analytical ultracentrifuge. Ultracentrifugation was conducted at speeds of 25K, 30K, 35K, 40K and 45K r.p.m., and the radial gradient profiles were obtained by absorbance at 280 nm. […]
A general note: SEC sorts molecules by how far they enter the pores of the column.

B1: PS1: de novo designed porphyrin-binding four-helix bundle protein; designed sequence SEQ ID NO:1, expressed His-tag-cleaved sequence SEQ ID NO:2 (protein)
chain: SEFEKLRQTGDELVQAFQRLREIFDKGDDDSLEQVLEEIEELIQKHRQLFDNRQEAADTEAAKQGDQWVQLFQRFREAIDKGDKDSLEQLLEELEQALQKIRELAEKKN
Regarding B1, the porphyrin loading in series [1] ((CF3)4PZn, based on absorbance at 280 nm and 423 nm, 100 mM NaCl, 50 mM NaPi, pH 7.5) is on record as 100%. Further, the “time of complex formation” value in series [1] (adding (CF3)4PZn from organic solution to aqueous PS1) is reported as “within seconds”. The “stability of the (CF3)4PZn complex over time” value in series [1] (complex with (CF3)4PZn) is “stable for over a year”. Besides, the “midpoint for GnHCl-induced unfolding” value in series [2] is listed as “approximately 4.5 M”. For the same molecule, in series [3], the “temperature up to which the porphyrin is bound” value is “up to 100 °C”. Also, in series [4], the “oligomeric state in solution” value is given as “monomeric”.
